This assay has as its target human MUC16 (mucin 16), endogenously expressed on cells (human). Briefly: MSD electrochemiluminescence cell binding; RLU ratio OVCAR-3/SK-OV-3; Ab […]; NS = Non-Specific, ratio <2.5-fold.

For mIgG2a Isotype Control Antibody, the Ratio: anti-MUC16 Binding OVCAR-3/SK-OV-3 was less than 2.5. On to mIgG1 Isotype Control Antibody, for which the Ratio: anti-MUC16 Binding OVCAR-3/SK-OV-3 is less than 2.5. For hIgG1 Isotype Control Antibody the value was less than 2.5.
